Measurements reported in US20200362306A1 (published 2020).

Target: T1, human mesothelin (human, UniProt Q13421 296-580, limits assumed)
T1 construct: also called MSLN
Test: method not stated; affinity given in parentheses for the binder

T1 sequence (Q13421 other isoform, or with tags, fused parts or gaps limits assumed): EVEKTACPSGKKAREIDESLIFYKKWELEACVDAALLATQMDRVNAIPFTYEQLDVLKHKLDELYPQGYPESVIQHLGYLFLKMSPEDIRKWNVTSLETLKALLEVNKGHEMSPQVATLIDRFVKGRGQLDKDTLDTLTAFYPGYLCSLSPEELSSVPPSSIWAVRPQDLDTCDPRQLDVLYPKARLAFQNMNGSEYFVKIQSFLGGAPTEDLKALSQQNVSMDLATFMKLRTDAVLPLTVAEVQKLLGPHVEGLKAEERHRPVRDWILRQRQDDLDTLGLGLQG

Binder | Kd [nM]
Single domain anti-MSLN binder 1 (SD1) (VHH, also called anti-MSLN-SD1) VHH: EVQLVESGGGLVQPGGSLRLSCAASGGDWSANFMYWYRQAPGKQRELVARISGRGVVDYVESVKGRFTISRDNSKNTLYLQMNSLRAEDTAVYYCAVASYWGQGTLVTVSS | 25
Single domain anti-MSLN binder 4 (SD4) (VHH, also called anti-MSLN-SD4) VHH: EVQLVESGGGLVQPGGSLRLSCAASGSTSSINTMYWYRQAPGKERELVAFISSGGSTNVRDSVKGRFTISRDNSKNTLYLQMNSLRAEDTAVYYCNTYIPYGGTLHDFWGQGTLVTVSS | 6
